The array DNA melting data of Ke et al.

Test: melting temperature; melt of duplexes
Details: sodium 0.0675 M; strand 1 µM

Substance	Tm [°C]
CGACGTGCTGTATGTGCTG+CAGCACATATCGCACGTCG ((((((((..(((((((((+)))))))))..))))))))	50.9
CGACGTGCGTAATGTGCTG+CAGCACATTACGCACGTCG (((((((((((((((((((+)))))))))))))))))))	63.9
CGACGTGCCATATGTGCTG+CAGCACATCTCGCACGTCG ((((((((.(.((((((((+)))))))).).))))))))	47.7
CGACGTGCGGAATGTGCTG+CAGCACATCAAGCACGTCG ((((((((...((((((((+))))))))...))))))))	53.8
CGACGTGCAAAATGTGCTG+CAGCACATACGGCACGTCG ((((((((...((((((((+))))))))...))))))))	48
CGACGTGCTGAATGTGCTG+CAGCACATGAAGCACGTCG (((((((((..((((((((+))))))))..)))))))))	59.3
CGACGTGCGGTATGTGCTG+CAGCACATTGGGCACGTCG ((((((((...((((((((+))))))))...))))))))	49.8
CGACGTGCCTTATGTGCTG+CAGCACATGCGGCACGTCG (((((((((..((((((((+))))))))..)))))))))	52.3
CGACGTGCACTATGTGCTG+CAGCACATTAAGCACGTCG ((((((((...((((((((+))))))))...))))))))	44.3
CGACGTGCATAATGTGCTG+CAGCACATACAGCACGTCG ((((((((...((((((((+))))))))...))))))))	48.2
CGACGTGCGCCATGTGCTG+CAGCACATCGTGCACGTCG ((((((((.(.((((((((+)))))))).).))))))))	47.7
CGACGTGCAGGATGTGCTG+CAGCACATCTGGCACGTCG ((((((((..(((((((((+)))))))))..))))))))	57.1
CGACGTGCGCGATGTGCTG+CAGCACATCGAGCACGTCG ((((((((.((((((((((+)))))))))).))))))))	63.1
CGACGTGCATAATGTGCTG+CAGCACATCTTGCACGTCG (((((((((..((((((((+))))))))..)))))))))	50.8
CGACGTGCGATATGTGCTG+CAGCACATAGCGCACGTCG (((((((((.(((((((((+))))))))).)))))))))	61.3
CGACGTGCCGGATGTGCTG+CAGCACATTATGCACGTCG ((((((((...((((((((+))))))))...))))))))	49.7
CGACGTGCTCGATGTGCTG+CAGCACATTGCGCACGTCG ((((((((.(.((((((((+)))))))).).))))))))	52.4
CGACGTGCCCAATGTGCTG+CAGCACATCTCGCACGTCG ((((((((...((((((((+))))))))...))))))))	47.6

Substance	Tm [°C]
CGACGTGCAGTATGTGCTG+CAGCACATGAGGCACGTCG ((((((((...((((((((+))))))))...))))))))	51.4
CGACGTGCCCGATGTGCTG+CAGCACATAGTGCACGTCG ((((((((.(.((((((((+)))))))).).))))))))	48
CGACGTGCACTATGTGCTG+CAGCACATCTAGCACGTCG ((((((((...((((((((+))))))))...))))))))	42.4
CGACGTGCAAAATGTGCTG+CAGCACATCCCGCACGTCG ((((((((...((((((((+))))))))...))))))))	47.2
CGACGTGCCAAATGTGCTG+CAGCACATCTAGCACGTCG ((((((((.(.((((((((+)))))))).).))))))))	49.3
CGACGTGCAGGATGTGCTG+CAGCACATAATGCACGTCG (((((((((..((((((((+))))))))..)))))))))	55.2
CGACGTGCCCCATGTGCTG+CAGCACATTACGCACGTCG ((((((((...((((((((+))))))))...))))))))	54.6
CGACGTGCGTAATGTGCTG+CAGCACATGTAGCACGTCG ((((((((...((((((((+))))))))...))))))))	58.1
CGACGTGCCCTATGTGCTG+CAGCACATTCAGCACGTCG ((((((((...((((((((+))))))))...))))))))	48.8
CGACGTGCAAAATGTGCTG+CAGCACATAGGGCACGTCG ((((((((...((((((((+))))))))...))))))))	48.7
CGACGTGCAGTATGTGCTG+CAGCACATCGCGCACGTCG ((((((((...((((((((+))))))))...))))))))	49.9
CGACGTGCAACATGTGCTG+CAGCACATAACGCACGTCG ((((((((...((((((((+))))))))...))))))))	48.2
CGACGTGCATCATGTGCTG+CAGCACATGAGGCACGTCG ((((((((.((((((((((+)))))))))).))))))))	60.8
CGACGTGCTAGATGTGCTG+CAGCACATCCAGCACGTCG (((((((((.(((((((((+))))))))).)))))))))	56.1
CGACGTGCAGAATGTGCTG+CAGCACATCCAGCACGTCG ((((((((.(.((((((((+)))))))).).))))))))	51.6
CGACGTGCCAGATGTGCTG+CAGCACATCTCGCACGTCG ((((((((.((((((((((+)))))))))).))))))))	55.9
CGACGTGCGTCATGTGCTG+CAGCACATTGGGCACGTCG ((((((((...((((((((+))))))))...))))))))	49.9
CGACGTGCAAGATGTGCTG+CAGCACATTGCGCACGTCG ((((((((...((((((((+))))))))...))))))))	52.9
